Source: the supplement of paper PMC11316812
± gives the standard deviation of the averaged measurements.

Assays:
[1] = system: MCF7; test: percentage of EdU-negative (G0-arrested) nuclei per well, 72 h; higher = more G0 arrest; details: reference: sequence is the full UniProt precursor, the tested protein was the secreted form or ectodomain
[2] = system: hTERT-HMEC; test: as above; details: reference: sequence is the full UniProt precursor, the tested protein was the secreted form or ectodomain
[3] = protein concentration 0.0225 µM
[4] = protein concentration 0.0173625 µM
[5] = protein concentration 0.173625 µM
[6] = protein concentration 0.0157525 µM
[7] = protein concentration 0.157525 µM
[8] = protein concentration 0.00775 µM
[9] = protein concentration 0.0775 µM
[10] = protein concentration 0.0183225 µM
[11] = protein concentration 0.183225 µM
[12] = protein concentration 0.0257143 µM
[13] = protein concentration 0.257143 µM
[14] = protein concentration 0.0357143 µM
[15] = protein concentration 0.357143 µM
[16] = protein concentration 0.0225714 µM
[17] = protein concentration 0.225714 µM
[18] = protein concentration 0.01375 µM
[19] = protein concentration 0.1375 µM
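Note: secreted proteins added to cultured cells, EdU pulse at the end, nuclei found by Hoechst imaging, EdU status from nuclear versus surrounding ring intensity ratio, PBS as neutral control.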

MRPPACWWLLAPPALLALLTCSLAFGLASEDTKKEVKQSQDLEKSGISRKNDIDLKGIVFVIQSQSNSFHAKRAEQLKKSILKQAADLTQELPSVLLLHQLAKQEGAWTILPLLPHFSVTYSRNSSWIFFCEEETRIQIPKLLETLRRYDPSKEWFLGKALHDEEATIIHHYAFSENPTVFKYPDFAAGWALSIPLVNKLTKRLKSESLKSDFTIDLKHEIALYIWDKGGGPPLTPVPEFCTNDVDFYCATTFHSFLPLCRKPVKKKDIFVAVKTCKKFHGDRIPIVKQTWESQASLIEYYSDYTENSIPTVDLGIPNTDRGHCGKTFAILERFLNRSQDKTAWLVIVDDDTLISISRLQHLLSCYDSGEPVFLGERYGYGLGTGGYSYITGGGGMVFSREAVRRLLASKCRCYSNDAPDDMVLGMCFSGLGIPVTHSPLFHQARPVDYPKDYLSHQVPISFHKHWNIDPVKVYFTWLAPSDEDKARQETQKGFREEL [Q6Y288]
percentage of EdU-negative [1, 3]: 23.9 ± 0.6%
percentage of EdU-negative ([1]; protein concentration 0.225 µM): 28.2 ± 2.5%
percentage of EdU-negative [2, 3]: 4.96 ± 0.058%
percentage of EdU-negative ([2]; protein concentration 0.225 µM): 9.95 ± 0.45%

MKLCSLAVLVPIVLFCEQHVFAFQSGQVLAALPRTSRQVQVLQNLTTTYEIVLWQPVTADLIVKKKQVHFFVNASDVDNVKAHLNVSGIPCSVLLADVEDLIQQQISNDTVSPRASASYYEQYHSLNEIYSWIEFITERHPDMLTKIHIGSSFEKYPLYVLKVSGKEQAAKNAIWIDCGIHAREWISPAFCLWFIGHITQFYGIIGQYTNLLRLVDFYVMPVVNVDGYDYSWKKNRMWRKNRSFYANNHCIGTDLNRNFASKHWCEEGASSSSCSETYCGLYPESEPEVKAVASFLRRNINQIKAYISMHSYSQHIVFPYSYTRSKSKDHEELSLVASEAVRAIEKISKNTRYTHGHGSETLYLAPGGGDDWIYDLGIKYSFTIELRDTGTYGFLLPERYIKPTCREAFAAVSKIAWHVIRNV [Q96IY4]
percentage of EdU-negative [1, 4]: 24.7 ± 2.5%
percentage of EdU-negative [1, 5]: 26.8 ± 0.93%
percentage of EdU-negative [2, 4]: 5.24 ± 0.032%
percentage of EdU-negative [2, 5]: 5.84 ± 0.41%

MRQVCCSALPPPPLEKGRCSSYSDSSSSSSERSSSSSSSSSESGSSSRSSSNNSSISRPAAPPEPRPQQQPQPRSPAARRAAARSRAAAAGGMRRDPAPGFSMLLFGVSLACYSPSLKSVQDQAYKAPVVVEGKVQGLVPAGGSSSNSTREPPASGRVALVKVLDKWPLRSGGLQREQVISVGSCVPLERNQRYIFFLEPTEQPLVFKTAFAPLDTNGKNLKKEVGKILCTDCATRPKLKKMKSQTGQVGEKQSLKCEAAAGNPQPSYRWFKDGKELNRSRDIRIKYGNGRKNSRLQFNKVKVEDAGEYVCEAENILGKDTVRGRLYVNSVSTTLSSWSGHARKCNETAKSYCVNGGVCYYIEGINQLSCKCPNGFFGQRCLEKLPLRLYMPDPKQKAEELYQKRVLTITGICVALLVVGIVCVVAYCKTKKQRKQMHNHLRQNMCPAHQNRSLANGPSHPRLDPEEIQMADYISKNVPATDHVIRRETETTFSGSHSCSPSHHCSTATPTSSHRHESHTWSLERSESLTSDSQSGIMLSSVGTSKCNSPACVEARARRAAAYNLEERRRATAPPYHDSVDSLRDSPHSERYVSALTTPARLSPVDFHYSLATQVPTFEITSPNSAHAVSLPPAAPISYRLAEQQPLLRHPAPPGPGPGPGPGPGPGADMQRSYDSYYYPAAGPGPRRGTCALGGSLGSLPASPFRIPEDDEYETTQECAPPPPPRPRARGASRRTSAGPRRWRRSRLNGLAAQRARAARDSLSLSSGSGGGSASASDDDADDADGALAAESTPFLGLRGAHDALRSDSPPLCPAADSRTYYSLDSHSTRASSRHSRGPPPRAKQDSAPL
percentage of EdU-negative [1, 6]: 24.9 ± 0.53%
percentage of EdU-negative [1, 7]: 26.5 ± 0.38%
percentage of EdU-negative [2, 6]: 4.61 ± 0.33%
percentage of EdU-negative [2, 7]: 5.33 ± 1%

MALFAVFQTTFFLTLLSLRTYQSEVLAERLPLTPVSLKVSTNSTRQSLHLQWTVHNLPYHQELKMVFQIQISRIETSNVIWVGNYSTTVKWNQVLHWSWESELPLECATHFVRIKSLVDDAKFPEPNFWSNWSSWEEVSVQDSTGQDILFVFPKDKLVEEGTNVTICYVSRNIQNNVSCYLEGKQIHGEQLDPHVTAFNLNSVPFIRNKGTNIYCEASQGNVSEGMKGIVLFVSKVLEEPKDFSCETEDFKTLHCTWDPGTDTALGWSKQPSQSYTLFESFSGEKKLCTHKNWCNWQITQDSQETYNFTLIAENYLRKRSVNILFNLTHRVYLMNPFSVNFENVNATNAIMTWKVHSIRNNFTYLCQIELHGEGKMMQYNVSIKVNGEYFLSELEPATEYMARVRCADASHFWKWSEWSGQNFTTLEAAPSEAPDVWRIVSLEPGNHTVTLFWKPLSKLHANGKILFYNVVVENLDKPSSSELHSIPAPANSTKLILDRCSYQICVIANNSVGASPASVIVISADPENKEVEEERIAGTEGGFSLSWKPQPGDVIGYVVDWCDHTQDVLGDFQWKNVGPNTTSTVISTDAFRPGVRYDFRIYGLSTKRIACLLEKKTGYSQELAPSDNPHVLVDTLTSHSFTLSWKDYSTESQPGFIQGYHVYLKSKARQCHPRFEKAVLSDGSECCKYKIDNPEEKALIVDNLKPESFYEFFITPFTSAGEGPSATFTKVTTPDEHSSMLIHILLPMVFCVLLIMVMCYLKSQWIKETCYPDIPDPYKSSILSLIKFKENPHLIIMNVSDCIPDAIEVVSKPEGTKIQFLGTRKSLTETELTKPNYLYLLPTEKNHSGPGPCICFENLTYNQAASDSGSCGHVPVSPKAPSMLGLMTSPENVLKALEKNYMNSLGEIPAGETSLNYVSQLASPMFGDKDSLPTNPVEAPHCSEYKMQMAVSLRLALPPPTENSSLSSITLLDPGEHYC
percentage of EdU-negative [1, 3]: 26.44 ± 0.24%
percentage of EdU-negative ([1]; protein concentration 0.225 µM): 24.9 ± 2%
percentage of EdU-negative [2, 3]: 4.25 ± 0.45%
percentage of EdU-negative ([2]; protein concentration 0.225 µM): 5.8 ± 0.95%

MPERLAEMLLDLWTPLIILWITLPPCIYMAPMNQSQVLMSGSPLELNSLGEEQRILNRSKRGWVWNQMFVLEEFSGPEPILVGRLHTDLDPGSKKIKYILSGDGAGTIFQINDVTGDIHAIKRLDREEKAEYTLTAQAVDWETSKPLEPPSEFIIKVQDINDNAPEFLNGPYHATVPEMSILGTSVTNVTATDADDPVYGNSAKLVYSILEGQPYFSIEPETAIIKTALPNMDREAKEEYLVVIQAKDMGGHSGGLSGTTTLTVTLTDVNDNPPKFAQSLYHFSVPEDVVLGTAIGRVKANDQDIGENAQSSYDIIDGDGTALFEITSDAQAQDGIIRLRKPLDFETKKSYTLKVEAANVHIDPRFSGRGPFKDTATVKIVVEDADEPPVFSSPTYLLEVHENAALNSVIGQVTARDPDITSSPIRFSIDRHTDLERQFNINADDGKITLATPLDRELSVWHNITIIATEIRNHSQISRVPVAIKVLDVNDNAPEFASEYEAFLCENGKPGQVIQTVSAMDKDDPKNGHYFLYSLLPEMVNNPNFTIKKNEDNSLSILAKHNGFNRQKQEVYLLPIIISDSGNPPLSSTSTLTIRVCGCSNDGVVQSCNVEAYVLPIGLSMGALIAILACIILLLVIVVLFVTLRRHKNEPLIIKDDEDVRENIIRYDDEGGGEEDTEAFDIATLQNPDGINGFLPRKDIKPDLQFMPRQGLAPVPNGVDVDEFINVRLHEADNDPTAPPYDSIQIYGYEGRGSVAGSLSSLESTTSDSDQNFDYLSDWGPRFKRLGELYSVGESDKET
percentage of EdU-negative [1, 8]: 27.78 ± 0.12%
percentage of EdU-negative [1, 9]: 34.9 ± 1.6%
percentage of EdU-negative [2, 8]: 5.37 ± 0.11%
percentage of EdU-negative [2, 9]: 5.69 ± 0.22%

MKALIVLGLVLLSVTVQGKVFERCELARTLKRLGMDGYRGISLANWMCLAKWESGYNTRATNYNAGDRSTDYGIFQINSRYWCNDGKTPGAVNACHLSCSALLQDNIADAVACAKRVVRDPQGIRAWVAWRNRCQNRDVRQYVQGCGV
percentage of EdU-negative [1, 10]: 25.9 ± 0.84%
percentage of EdU-negative [1, 11]: 24.489 ± 0.011%
percentage of EdU-negative [2, 10]: 5.192 ± 0.011%
percentage of EdU-negative [2, 11]: 4.83 ± 0.071%

MKSLTWILGLWALAACFTPGESQRGPRGPYPPGPLAPPPPPCFPFGTGFVPPPHPPPYGPGRFPPPLSPPYGPGRIPPSPPPPYGPGRIQSHSLPPPYGPGYPQPPSQPRPYPPGPPFFPVNSPTDPALPTPAP
percentage of EdU-negative [1, 12]: 22.6 ± 1%
percentage of EdU-negative [1, 13]: 26.45 ± 0.12%
percentage of EdU-negative [2, 12]: 5.63 ± 1.3%
percentage of EdU-negative [2, 13]: 7.43 ± 0.82%

MLTTLLPILLLSGWAFCSQDASDGLQRLHMLQISYFRDPYHVWYQGNASLGGHLTHVLEGPDTNTTIIQLQPLQEPESWARTQSGLQSYLLQFHGLVRLVHQERTLAFPLTIRCFLGCELPPEGSRAHVFFEVAVNGSSFVSFRPERALWQADTQVTSGVVTFTLQQLNAYNRTRYELREFLEDTCVQYVQKHISAENTKGSQTSRSYTSLVLGVLVGSFIIAGVAVGIFLCTGGRRC [Q9UNN8]
percentage of EdU-negative [1, 14]: 24.2 ± 1.7%
percentage of EdU-negative [1, 15]: 25.3 ± 1.2%
percentage of EdU-negative [2, 14]: 4.92 ± 0.17%
percentage of EdU-negative [2, 15]: 6.22 ± 0.072%

Q9NP99
percentage of EdU-negative [1, 3]: 25.2 ± 3.3%
percentage of EdU-negative ([1]; protein concentration 0.225 µM): 25.7 ± 1.1%
percentage of EdU-negative [2, 3]: 4.69 ± 0.52%
percentage of EdU-negative ([2]; protein concentration 0.225 µM): 5.446 ± 0.054%

MPRLSLLLPLLLLLLLPLLPPLSPSLGIRDVGGRRPKCGPCRPEGCPAPAPCPAPGISALDECGCCARCLGAEGASCGGRAGGRCGPGLVCASQAAGAAPEGTGLCVCAQRGTVCGSDGRSYPSVCALRLRARHTPRAHPGHLHKARDGPCEFAPVVVVPPRSVHNVTGAQVGLSCEVRAVPTPVITWRKVTKSPEGTQALEELPGDHVNIAVQVRGGPSDHEATAWILINPLRKEDEGVYQCHAANMVGEAESHSTVTVLDLSKYRSFHFPAPDDRM [Q8WX77]
percentage of EdU-negative [1, 16]: 27.4 ± 0.89%
percentage of EdU-negative [1, 17]: 29.2 ± 0.86%
percentage of EdU-negative [2, 16]: 4.78 ± 0.086%
percentage of EdU-negative [2, 17]: 4.6 ± 1.4%

O60486
percentage of EdU-negative [1, 18]: 23.37 ± 0.13%
percentage of EdU-negative [1, 19]: 26.9 ± 3%
percentage of EdU-negative [2, 18]: 4.77 ± 0.19%
percentage of EdU-negative [2, 19]: 10.8 ± 1%

MAPAQRPLLPLLLLLLPLPPPPFARAEDAARANSDRYAVYWNRSNPRFHAGAGDDGGGYTVEVSINDYLDIYCPHYGAPLPPAERMEHYVLYMVNGEGHASCDHRQRGFKRWECNRPAAPGGPLKFSEKFQLFTPFSLGFEFRPGHEYYYISATPPNAVDRPCLRLKVYVRPTNETLYEAPEPIFTSNNSCSSPGGCRLFLSTIPVLWTLLGS
percentage of EdU-negative [1, 3]: 25.4 ± 3%
percentage of EdU-negative ([1]; protein concentration 0.225 µM): 27.3 ± 0.45%
percentage of EdU-negative [2, 3]: 5.69 ± 1.4%
percentage of EdU-negative ([2]; protein concentration 0.225 µM): 9.78 ± 0.54%
